Experimental data from US20160311934A1, “HYDROXYALKYL STARCH DERIVATIVES AS REACTANTS FOR COUPLING TO THIOL GROUPS” (FRESENIUS KABI DEUTSCHLAND GMBH, priority 2013, published 2016).
Substitutions are numbered along the chain they refer to. Names and notes keep the numbering of the source. Values belong to the molecule of their own block, whether it stands above or below them.

Key:
[1] = molecular target: T1, Interleukin 1 receptor type I (Homo sapiens, UniProt P14778); experiment: SPR binding affinity on a BIAcore system; conditions: immobilized receptor on CM3 chip, 1:1 binding stoichiometry
T1 construct: purchased R&D Systems
T1 sequence (P14778 18-569): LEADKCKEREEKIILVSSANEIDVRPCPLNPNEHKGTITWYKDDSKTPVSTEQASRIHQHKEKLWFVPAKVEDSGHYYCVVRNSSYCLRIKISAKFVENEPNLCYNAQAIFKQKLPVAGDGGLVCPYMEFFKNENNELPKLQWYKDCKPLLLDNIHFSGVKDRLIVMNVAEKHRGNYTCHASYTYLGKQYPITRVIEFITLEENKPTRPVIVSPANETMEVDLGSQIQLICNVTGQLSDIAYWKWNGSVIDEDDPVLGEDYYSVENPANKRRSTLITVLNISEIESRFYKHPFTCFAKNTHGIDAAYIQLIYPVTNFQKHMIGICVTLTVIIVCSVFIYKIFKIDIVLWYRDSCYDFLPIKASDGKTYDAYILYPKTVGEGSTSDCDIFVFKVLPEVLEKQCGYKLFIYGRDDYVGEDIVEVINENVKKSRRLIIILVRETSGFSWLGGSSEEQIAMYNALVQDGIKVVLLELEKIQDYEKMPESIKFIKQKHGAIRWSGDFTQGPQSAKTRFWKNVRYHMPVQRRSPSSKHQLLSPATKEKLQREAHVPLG
Protocol: Conjugates of L12-HES with IL1RA were tested for binding affinity to its natural binding partner using SPR on a BIAcore system. Interleukin 1 receptor type I (R&D Systems) was immobilized on the chip surface and the kinetic binding parameters were determined for the conjugate in comparison to the unmodified protein (chip: CM3, immobilization: 950 RU, flow rate 30 μl/min, association 180 s, dissociation 900 s, regeneration: 6 s with 5 mM glycine buffer, pH 2.0). The curves were analyzed by assuming a 1:1 binding stoichiometry.

[2] = test system: peptidyl prolyl bonds; experiment: Prolyl isomerase activity assay; assay type: biochemical
Protocol: Prolylisomerases like SlyD catalyze the trans to cis isomerization of peptidyl prolyl bonds. The prolyl isomerase activities of SlyD and the L12-HES-SlyD conjugate were measured by a prolyl isomerase activity assay according to Zoldak et al. (2009, Biochemistry, 48, 10423-10436). The rate constant of the cis to trans isomerization of the prolyl bond was determined using Origin 8.1. […] The catalytic activity of unmodified SlyD is 5.6·10^6 M^−1s^−1 and the activity of the L12-HES-SlyD conjugate is 6.0·10^6 M^−1s^−1 (107% of the activity of unconjugated SlyD). The higher activity of the conjugate compared to unmodified SlyD is within the error of the assay.

[3] = Stability tests of HES-protein conjugates at different pH, 40° C., 20 days; assay type: physicochemical; conditions: protein conjugate 1 mg/ml
Protocol: For stability tests at pH 4.0, 5.5, 7.0 and 8.0, the conjugates were diluted into final buffer conditions of 20 mM acetate (pH 4.0 and 5.5) or 10 mM phosphate (pH 7.0 and 8.0), 0.5 mM ETDA, 154 mM NaCl to a final concentration of 1 mg/ml. The conjugates were stored at 40° C. for 20 days and analyzed by RP-HPLC (example for Ubi is shown in FIG. 3), SEC (as described in example C1) or SDS-PAGE (as described in example C1).

- association rate ka [1]: 263000 M⁻¹ s⁻¹
Molecule: IL1RA that is conjugated to HES via N-terminal coupling: IL1RA that is conjugated to HES via N-terminal coupling

- association rate ka [1]: 588000 M⁻¹ s⁻¹
Molecule: unmodified IL1RA: interleukin-1 receptor antagonist (Kineret®), unconjugated

More lines, now with the values behind:

B1: unmodified SlyD: SlyD D101C, sensitive to lysis protein D, a prolylisomerase, unconjugated (protein, UniProt P0A9K9 1-196, looked up, variant D101C)
FKBP-type peptidyl-prolyl …: MKVAKDLVVSLAYQVRTEDGVLVDESPVSAPLDYLHGHGSLISGLETALEGHEVGDKFDVAVGANDAYGQYDENLVQRVPKDVFMGVDELQVGMRFLAETCQGPVPVEITAVEDDHVVVDGNHMLAGQNLKFNVEVVAIREATEEELAHGHVHGAHDHHHDHDHDGCCGGHGHDHGHEHGGEGCCGGKGNGGCGCH
- catalytic activity (prolyl isomerization) [2]: 5.6e+06 M⁻¹ s⁻¹

B2: L12 X12 SlyD (conjugate, UniProt P0A9K9 1-196, looked up)
FKBP-type peptidyl-prolyl …: B1 FKBP-type peptidyl-prolyl … with C101D
modifications: HES X12 via linker L12
- catalytic activity (prolyl isomerization) [2]: 6e+06 M⁻¹ s⁻¹
- % of the activity of unconjugated SlyD ([2]; relative to unconjugated SlyD): 107%
- conjugate degradation after 20 days (%) pH 7.0 ([3]; 10 mM phosphate pH 7.0, 40° C.): 3.4%
- conjugate degradation after 20 days (%) pH 8.0 ([3]; 10 mM phosphate pH 8.0, 40° C.): 9.0%
- conjugate degradation after 20 days (%) pH 5.5 ([3]; 20 mM acetate pH 5.5, 40° C.): 1.4%
